Molecular target: endogenous Maf1 (human (endogenous in HeLa)) (UniProt Q9H063)
Experiment: co-IP; HeLa (cell line 9-8) whole cell extract, immunoprecipitation with anti-Maf1 or anti-GAPDH antibodies; immunoblot with anti-RPC1, anti-Brf1, anti-Maf1

Sequence of endogenous Maf1 (human (endogenous in HeLa)) (Q9H063 whole entry): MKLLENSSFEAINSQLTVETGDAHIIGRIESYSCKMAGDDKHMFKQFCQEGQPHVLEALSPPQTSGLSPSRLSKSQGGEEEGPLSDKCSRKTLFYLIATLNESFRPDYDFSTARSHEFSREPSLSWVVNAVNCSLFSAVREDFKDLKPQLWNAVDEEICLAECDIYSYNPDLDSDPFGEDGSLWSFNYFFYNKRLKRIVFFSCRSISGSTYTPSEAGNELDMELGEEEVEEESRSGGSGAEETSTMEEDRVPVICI

percent of RPC1 co-immunoprecipitated: 6%
Substance: RPC1, the largest subunit of pol III (endogenous, HeLa) (from UniProt O14802 1-1390) (natural protein)

Source: publication PMC1762419
